Laboratory results reported in patent US20230056252A1 (Gilead, published 2023).
Where a chain is given by its changes, count along the chain named.

B1: huSP34.2.1 Fab-HF (Fab, V domains shown)
VH: EVQLVESGGGLVQPGGSLRLSCAASGFTFSTYAMNWVRQAPGKGLEWVGRIRSKYNNYATYYAASVKGRFTISRDDSKNSLYLQMNSLKTEDTAMYYCVRHGNFGNSYVSWFAVWGQGTLVTVSS
VL: QAVVTQEPSLTVSPGGTVTLTCRSSTGAVTTSNYANWVQQKPGQAPRGLIGGTNKRAPWTPARFSGSLIGDKAALTLSGAQPEDEAEYYCALWYSNLWVFGGGTKLTVL
notes: also called HC2+LC1
B2: huSP34.8.2 Fab-HF (Fab, V domains shown)
VH: B1 VH with T31D, I51T, M95V, N106H
VL: B1 VL with R23G, N54S, K55N, I69L, D71G
notes: also called HC8+LC2
B3: huSP34.3.5 Fab-HF (Fab, V domains shown)
VH: B1 VH with S30N, A64D, K89R, M95V, N106H, V114Y
VL: B1 VL with R23G, S32G, N33H, N54S, K55N, I69L, D71G, N96A, L97R
notes: also called HC3+LC5
B4: huSP34.5.1 Fab-HF (Fab, V domains shown)
VH: B1 VH with A64D, D76N, S80T, K89R, T90A, M95V, N106H
VL: B1 VL
notes: also called HC5+LC1
B5: huSP34.6.2 Fab-HF (Fab, V domains shown)
VH: B1 VH with A64D, D76N, S80T, K89R, T90A
VL: B1 VL with R23G, N54S, K55N, I69L, D71G
notes: also called HC6+LC2
B6: huSP34.5.2 Fab-HF (Fab, V domains shown)
VH: B1 VH with A64D, D76N, S80T, K89R, T90A, M95V, N106H
VL: B1 VL with R23G, N54S, K55N, I69L, D71G
notes: also called HC5+LC2
B7: huSP34.5.4 Fab-HF (Fab, V domains shown)
VH: B1 VH with A64D, D76N, S80T, K89R, T90A, M95V, N106H
VL: B1 VL with R23G, N33H, N54S, I69L, D71G, N96A
notes: also called HC5+LC4
B8: huSP34.8.1 Fab-HF (Fab, V domains shown)
VH: B1 VH with T31D, I51T, M95V, N106H
VL: B1 VL
notes: also called HC8+LC1
B9: huSP34.2.6 Fab-HF (Fab, V domains shown)
VH: B1 VH
VL: QAVVTQPPSLTVSPGGTVTLTCGSSTGAVTTGHYANWVQQKPGQAPRGLIGGTSNRAPGVPARFSGSLSGGKAALTISGAQPEDEAEYYCALWYSARWVFGGGTKLTVL
notes: also called HC2+LC6
B10: huSP34.8.5 Fab-HF (Fab, V domains shown)
VH: B1 VH with T31D, I51T, M95V, N106H
VL: B9 VL with P7E, G59W, V60T, S69L, I77L
notes: also called HC8+LC5
B11: huSP34.2.5 Fab-HF (Fab, V domains shown)
VH: B1 VH
VL: B9 VL with P7E, G59W, V60T, S69L, I77L
notes: also called HC2+LC5
B12: huSP34.9.1 Fab-HF (Fab, V domains shown)
VH: B1 VH with T31D, I51T, N57S, M95V
VL: B1 VL
notes: also called HC9+LC1
B13: huSP34.7.4 Fab-HF (Fab, V domains shown)
VH: B1 VH with T31D, I51T, M95V
VL: B1 VL with R23G, N33H, N54S, I69L, D71G, N96A
notes: also called HC7+LC4
B14: huSP34.2.2 Fab-HF (Fab, V domains shown)
VH: B1 VH
VL: B1 VL with R23G, N54S, K55N, I69L, D71G
notes: also called HC2+LC2
B15: huSP34.9.4 Fab-HF (Fab, V domains shown)
VH: B1 VH with T31D, I51T, N57S, M95V
VL: B1 VL with R23G, N33H, N54S, I69L, D71G, N96A
notes: also called HC9+LC4
B16: huSP34.4.1 Fab-HF (Fab, V domains shown)
VH: B1 VH with K89R, M95V, N106H
VL: B1 VL
notes: also called HC4+LC1
B17: huSP34.3.4 Fab-HF (Fab, V domains shown)
VH: B1 VH with S30N, A64D, K89R, M95V, N106H, V114Y
VL: B1 VL with R23G, N33H, N54S, I69L, D71G, N96A
notes: also called HC3+LC4
B18: huSP34.8.4 Fab-HF (Fab, V domains shown)
VH: B1 VH with T31D, I51T, M95V, N106H
VL: B1 VL with R23G, N33H, N54S, I69L, D71G, N96A
notes: also called HC8+LC4
B19: huSP34.7.2 Fab-HF (Fab, V domains shown)
VH: B1 VH with T31D, I51T, M95V
VL: B1 VL with R23G, N54S, K55N, I69L, D71G
notes: also called HC7+LC2
B20: huSP34.4.5 Fab-HF (Fab, V domains shown)
VH: B1 VH with K89R, M95V, N106H
VL: B9 VL with P7E, G59W, V60T, S69L, I77L
notes: also called HC4+LC5
B21: huSP34.3.6 Fab-HF (Fab, V domains shown)
VH: B1 VH with S30N, A64D, K89R, M95V, N106H, V114Y
VL: B9 VL
notes: also called HC3+LC6
B22: huSP34.5.5 Fab-HF (Fab, V domains shown)
VH: B1 VH with A64D, D76N, S80T, K89R, T90A, M95V, N106H
VL: B9 VL with P7E, G59W, V60T, S69L, I77L
notes: also called HC5+LC5
B23: huSP34.4.4 Fab-HF (Fab, V domains shown)
VH: B1 VH with K89R, M95V, N106H
VL: B1 VL with R23G, N33H, N54S, I69L, D71G, N96A
notes: also called HC4+LC4
B24: huSP34.2.4 Fab-HF (Fab, V domains shown)
VH: B1 VH
VL: B1 VL with R23G, N33H, N54S, I69L, D71G, N96A
notes: also called HC2+LC4
B25: huSP34.3.1 Fab-HF (Fab, V domains shown)
VH: B1 VH with S30N, A64D, K89R, M95V, N106H, V114Y
VL: B1 VL
notes: also called HC3+LC1
B26: huSP34.3.2 Fab-HF (Fab, V domains shown)
VH: B1 VH with S30N, A64D, K89R, M95V, N106H, V114Y
VL: B1 VL with R23G, N54S, K55N, I69L, D71G
notes: also called HC3+LC2
B27: huSP34.9.2 Fab-HF (Fab, V domains shown)
VH: B1 VH with T31D, I51T, N57S, M95V
VL: B1 VL with R23G, N54S, K55N, I69L, D71G
notes: also called HC9+LC2
B28: huSP34.6.5 Fab-HF (Fab, V domains shown)
VH: B1 VH with A64D, D76N, S80T, K89R, T90A
VL: B9 VL with P7E, G59W, V60T, S69L, I77L
notes: also called HC6+LC5
B29: huSP34.7.5 Fab-HF (Fab, V domains shown)
VH: B1 VH with T31D, I51T, M95V
VL: B9 VL with P7E, G59W, V60T, S69L, I77L
notes: also called HC7+LC5
B30: huSP34.4.2 Fab-HF (Fab, V domains shown)
VH: B1 VH with K89R, M95V, N106H
VL: B1 VL with R23G, N54S, K55N, I69L, D71G
notes: also called HC4+LC2
B31: huSP34.6.1 Fab-HF (Fab, V domains shown)
VH: B1 VH with A64D, D76N, S80T, K89R, T90A
VL: B1 VL
notes: also called HC6+LC1
B32: huSP34.6.4 Fab-HF (Fab, V domains shown)
VH: B1 VH with A64D, D76N, S80T, K89R, T90A
VL: B1 VL with R23G, N33H, N54S, I69L, D71G, N96A
notes: also called HC6+LC4
B33: huSP34.8.6 Fab-HF (Fab, V domains shown)
VH: B1 VH with T31D, I51T, M95V, N106H
VL: B9 VL
notes: also called HC8+LC6
B34: huSP34.7.1 Fab-HF (Fab, V domains shown)
VH: B1 VH with T31D, I51T, M95V
VL: B1 VL
notes: also called HC7+LC1
B35: huSP34.4.6 Fab-HF (Fab, V domains shown)
VH: B1 VH with K89R, M95V, N106H
VL: B9 VL
notes: also called HC4+LC6
B36: mSP34 Fab-HF (Fab, V domains shown)
VH: EVKLLESGGGLVQPKGSLKLSCAASGFTFNTYAMNWVRQAPGKGLEWVARIRSKYNNYATYYADSVKDRFTISRDDSQSILYLQMNNLKTEDTAMYYCVRHGNFGNSYVSWFAYWGQGTLVTVSA
VL: QAVVTQESALTTSPGETVTLTCRSSTGAVTTSNYANWVQEKPDHLFTGLIGGTNKRAPGVPARFSGSLIGDKAALTITGAQTEDEAIYFCALWYSNLWVFGGGTKLTVLG
notes: also called mSP34 chimeric Fab; mSP34 human chimeric Fab

Molecular target: T1, biotinylated CD3 epsilon:delta heterodimer protein (Amsbio AMS.CDD-H52WO) (Homo sapiens (Human), UniProt P07766 23-126; P04234 22-105)
T1 construct: also called CD3 heterodimer
Test: BLI (Octet), CD3 on SA sensor, Fab analyte;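 also: biolayer interferometry with biotinylated CD3 epsilon:delta captured on streptavidin sensors, Fab analyte at several concentrations up to 300 nM, 100 s association then 300 s dissociation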
Description: The CD3 binding kinetics of the purified huSP34 Fabs were determined using OctetRed384 (Pall ForteBio, CA) biolayer interferometry (BLI). […] Streptavidin (SA) coated biosensors tips (Pall ForteBio, CA) were used to capture biotinylated CD3 epsilon: delta heterodimer and typical immobilization levels captured on the SA sensors were 1 nm which approximately translates to 300 ng/ml of captured protein. For kinetic measurements biosensors were first pre-wetted with assay buffer for 10 minutes to remove protective sucrose coating followed by the recommended regeneration conditions for standardization of the biosensor surface for the experiment. In order to load the biosensors with antigen, 300 ng/ml of biotinylated CD3 epsilon: delta heterodimer protein (Amsbio AMS.CDD-H52WO) was immobilized on the SA sensor for 900 seconds. The CD3 loaded biosensors were then blocked with 20 ug/ml biocytin (sigma) for 200 seconds and then dipped into assay buffer containing wells for 200 seconds to remove any non-specific protein or unbound CD3 heterodimer.
CD3 loaded and biocytin blocked biosensors were then transferred into fresh assay buffer for 200 seconds to collect a baseline read. Kinetic measurements for anti-CD3 Fab and bispecific antibody binding were performed by dipping the CD3-coated biosensors into wells containing multiple concentrations of Fab or Ab (0-300 nM) for 100 seconds followed by a 300 second dissociation time by transferring the biosensors into assay buffer containing wells. The CD3 loaded sensors were then regenerated for the next kinetic measurement. Biosensors were generated by removing bound Fabs or Ab from immobilized CD3 on SA biosensors. Regeneration conditions used consisted of 3 cycles of 5 seconds of dipping the biosensors in Regeneration Buffer (10 mM Glycine HCl pH 1.5) followed by Assay Buffer (10 mM sodium phosphate pH 7.4, 140 mM Sodium Chloride, 0.005% Tween20 with 0.2% BSA).

| Binder | Kd [nM] | koff [s⁻¹] | kon [M⁻¹ s⁻¹] |
| --- | --- | --- | --- |
| B1 | 24.6 | 0.00596 | 246000 |
| B2 | 3440 | 0.0982 | 172000 |
| B3 | 68.5 | 0.0177 | 260000 |
| B4 | 123 | 0.0365 | 311000 |
| B5 | 351 | 0.0499 | 144000 |
| B6 | 1200 | 0.109 | 90800 |
| B7 | 497 | 0.213 | 429000 |
| B8 | 443 | 0.0823 | 186000 |
| B9 | 30.6 | 0.0107 | 351000 |
| B10 | 234 | 0.219 | 958000 |
| B11 | 162 | 0.0408 | 251000 |
| B12 | 417 | 0.0779 | 187000 |
| B13 | 4180 | 0.424 | 265000 |
| B14 | 26.4 | 0.0141 | 609000 |
| B15 | 6120 | 0.25 | 40900 |
| B16 | 19.8 | 0.00723 | 396000 |
| B17 | 85.8 | 0.0246 | 287000 |
| B18 | 305 | 0.163 | 561000 |

| Binder | Kd [nM] | koff [s⁻¹] | kon [M⁻¹ s⁻¹] |
| --- | --- | --- | --- |
| B19 | 498 | 0.155 | 318000 |
| B20 | 211 | 0.0506 | 241000 |
| B21 | 18.9 | 0.00482 | 266000 |
| B22 | 666 | 0.185 | 277000 |
| B23 | 159 | 0.0436 | 274000 |
| B24 | 99.4 | 0.0335 | 398000 |
| B25 | 14.7 | 0.00366 | 252000 |
| B26 | 25.4 | 0.00952 | 381000 |
| B27 | 761 | 0.145 | 192000 |
| B28 | 353 | 0.0963 | 273000 |
| B29 | 1460 | 0.848 | 307000 |
| B30 | 45.2 | 0.0144 | 321000 |
| B31 | 53.9 | 0.0199 | 478000 |
| B32 | 570 | 0.202 | 359000 |
| B33 | 375 | 0.138 | 367000 |
| B34 | 372 | 0.0855 | 235000 |
| B35 | 22.7 | 0.0101 | 451000 |
| B36 | 9.6 | 0.0025 | 262000 |
